Literature values as cited in PMC8141935.
pKd: −log10 of the molar value.

Molecular target: GABAA receptor α3 subunit intracellular loop (UniProt P34903)
Sequence (P34903 361-457): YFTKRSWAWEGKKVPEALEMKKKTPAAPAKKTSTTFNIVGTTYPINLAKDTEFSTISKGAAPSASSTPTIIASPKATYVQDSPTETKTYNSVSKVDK

Sequence of gephyrin (Q9NQX3 whole entry): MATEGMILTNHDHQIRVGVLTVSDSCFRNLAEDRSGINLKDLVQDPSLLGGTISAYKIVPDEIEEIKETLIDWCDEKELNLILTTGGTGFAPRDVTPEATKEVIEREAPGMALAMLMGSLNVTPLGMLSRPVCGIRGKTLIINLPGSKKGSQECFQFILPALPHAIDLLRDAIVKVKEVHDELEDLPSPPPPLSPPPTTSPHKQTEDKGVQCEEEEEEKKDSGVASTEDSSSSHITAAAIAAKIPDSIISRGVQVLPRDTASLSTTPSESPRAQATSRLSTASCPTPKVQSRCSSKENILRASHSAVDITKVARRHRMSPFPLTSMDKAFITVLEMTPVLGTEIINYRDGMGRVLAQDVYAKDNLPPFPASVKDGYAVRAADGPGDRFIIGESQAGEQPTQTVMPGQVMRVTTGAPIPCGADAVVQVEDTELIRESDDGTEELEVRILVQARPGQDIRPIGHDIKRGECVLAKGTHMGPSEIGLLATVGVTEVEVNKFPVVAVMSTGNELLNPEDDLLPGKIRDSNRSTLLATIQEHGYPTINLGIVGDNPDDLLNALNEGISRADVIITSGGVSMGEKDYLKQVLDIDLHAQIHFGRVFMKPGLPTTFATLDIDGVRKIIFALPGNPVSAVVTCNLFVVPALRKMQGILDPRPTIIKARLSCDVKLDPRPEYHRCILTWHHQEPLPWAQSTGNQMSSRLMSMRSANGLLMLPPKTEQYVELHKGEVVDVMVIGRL

pKd: 5.28
Substance: gephyrin (from UniProt Q9NQX3)
